Data published in paper PMC2606027.

How the values were obtained:
[1] = biological target: Full-length HIV-1 IN fused to the DNA binding domain of Gal4 (WT bait) (HIV-1); assay: two-hybrid
[2] = biological target: KKK HIV-1 IN (D6K/E10K/E13K) fused to the DNA binding domain of Gal4 (HIV-1); assay: two-hybrid; Gal4 DBD-IN bait and Gal4 AD-LEDGF IBD prey in S. cerevisiae Y187; β-galactosidase activity relative to WT bait/WT prey (100%); background: WT IN with empty prey vector
[3] = biological target: LEDGF IBD fused to Gal4 transcription activation domain (WT prey); assay: yeast two-hybrid (β-galactosidase reporter); settings: S. cerevisiae Y187; quadruplicate measurements; read off a plot

Row | Substance | percent of parent [3] | also measured
1 | AAA LEDGF IBD (K401A/K402A/R405A) fused to Gal4 transcription activation domain (domain or fragment) |  | binding relative to WT (β-galactosidase activity) [1]: 5 % of WT
2 | EEE LEDGF IBD (K401E/K402E/R405E) fused to Gal4 transcription activation domain (domain or fragment) |  | β-galactosidase activity relative to WT-WT [2]: 40 % of WT-WT
3 | Full-length HIV-1 IN fused to the DNA binding domain of Gal4 (WT bait) D6K; E10K; E13K | 1.2 % of WT/WT | 
4 | Full-length HIV-1 IN fused to the DNA binding domain of Gal4 (WT bait) E10K; E13K | 1.3 % of WT/WT | 
